Test results published in patent publication US20250034594A1, “RNA-GUIDED GENOME RECOMBINEERING AT KILOBASE SCALE” (THE BOARD OF TRUSTEES OF THE LELAND STANFORD JUNIOR …, priority 2021, published 2025).

How the values were obtained:
Format in all cases: cell-based
gene editing with dCas9 = assay: Screen of 322 new SSAP proteins, gene editing activity with dCas9 (Table 5); design: dCas9 with SSAP activity: scale not given here
Procedure, shortened: (§1)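 Sequence-mined SSAPs (n=322), synthesized; editing activity screened with Cas9 or dCas9.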

gene editing with Cas9 = assay: Screen of 322 new SSAP proteins, gene editing activity with Cas9 (Table 5); design: Cas9 with SSAP activity: scale not given here
Procedure, shortened: as §1

[1] = test system: gene editing with Cas9 and dCas9; assay: Screen of 322 new SSAP proteins, activity across all experiments (Cas9 and dCas9, Table 5); design: scale not given here
Procedure, shortened: as §1

Molecule	dCas9 with SSAP activity (gene editing with dCas9)	dCas9 with SSAP activity (normalized) (gene editing with dCas9)	Cas9 with SSAP activity (gene editing with Cas9)	Cas9 with SSAP activity (normalized) (gene editing with Cas9)	Activity across all experiments [1]
SSAP_49: SEQ ID NO: 218 (protein) TNNQLATQTKRNITTDPSLLTGADIKKYFDPQNLLTEKQVGQALALCKGRNLNPFANEVYIVAYTNRNGGKEFSLIVSKEAFLKRAAQCKDYEGFEAGVVVVDSEGVMHERKGAIMLPEDTLIGGWARVHRKNFKVPVEIVVSREEYDKKQSTWNTMPATMIRKVALVNALREAFPEDLGNMYTEDDGGETFDRIKDVTPQESREDVVARKMAEIEQFNKEQETNHADPEPAQTEETIQGELLDGELEY	−0.987	−0.289	−0.515	−0.176	−0.751
SSAP_17: SEQ ID NO: 186 (protein) ATNDELKNQLANKQNGGQVASAQSLDLKGLLEAPTMRKKFEKVLDKKAPQFLTSLLNLYNGDDYLQKTDPMTVVTSAMVAATLDLPIDKNLGYAWIVPYKGRAQFQLGYKGYIQLALRTGQYKSINVIEVRDGELLKWNRLTEEIELDLDNNTSEKVIGYCGYFQLINGFEKTVYWTRKEIEAHKKKFSKSDFGWKKDYDAMAKKTVLRNMLSKWGILSIDMQTAVTEDEAEPRERKDVTEDESIPDIIDAPITPSDTLEAGSEVQGSMI	−1.088	−0.491	−0.287	−0.195	−0.687
SSAP_5: SEQ ID NO: 174 (protein) ANELGIFSVDNLNMTTIKQYLDGGGKASDAELVLLINLCKQNNMNPFMKEVYFIKYGNQPAQIVVSRDFYRKRAFQNPNFVGIEVGVIVLNKDGVLEHNEGTFKTHEQELVGAWARVHLKNTEIPVYVAVSYDEYVQMKDGHPNKMWTNKPCTMLGKVAESQALRMAFPAEFSGTYGEEEYPEPEKEPREVNGVKEPDRAQIESFDKEDYAAKKIEELKEKAQPQKEVVEETGEVIDEEPLEGF	−0.854	−0.392	−0.026	−0.032	−0.440
SSAP_214: SEQ ID NO: 383; Clostridium tunisiense (protein, Clostridium tunisiense) TTKANVTSVKNALKEQIQVQQVAAQTDTSFQGVLTKQLQHQFKAIQSLVPKHVTPERLCRIGINAASRNPQLMNCTPETIVGAIVNCATLGLEPNLLGHAYIVPFYNNKTGKMEAQFQVGYKGALDLIRRTGAVSTLSAHEVYGPRSIFWTQYFY	−1.088	−1.120	−0.428	−0.545	−0.758
SSAP_22: SEQ ID NO: 191 (protein) SNELMTKAVTYEVNNEEVKLSGQIVKQYLTSGQAVTDQEVTMFIQLCRYQHLNPFLNEAYLVKFNGKPAQIITSKEAFMKRAESNPNYAGLKAGCIVERNGELIYTEGAFTLKTDNILGAWADVIRKDRREPTHVEISMDEFSKSQATWKSMPATMIRKTAIVNALREAFPQDLGALYTEDDKNPNEATQTTYKQEPEVNTTKTADVLAKKFSGAPQIKSVENVQESEEESNNASNHGEATEPVNNVEEPTATAEVEQGQLL	−0.792	−0.867	1.789	4.337	0.498
SSAP_270: SEQ ID NO: 439; Lactococcus sp. DD01 (protein, listed as Lactococcus sp.) ANLTPTQTVLKSDAAKRKFEEVLGKKTNGFVGSLLSLVGSTNLKNVDSNSVMTAAMKAATLDLPIEPSLGFAYVIPYGREAQFQIGYKGLIQLAIRSGQVTKLNAGPVYENQFIKYDSLFEELEIDFSMPQGVEIAGYFASMELANGFRKIIYWDKEKVTAHGKRFSKSFNRSSSPWQTDFDAMATKTVLKAMLSTYAPLSTEMQQAIVADNESATPKDATPVTDDLVLEAVEDSKQIEENEIINDQVASENYQEPQGEPEVLDLEL	−0.896	−0.293	0.154	0.174	−0.371
SSAP_178: SEQ ID NO: 347; Streptomyces sp. MZ04 (protein, listed as Streptomyces sp.) STNLAARVEARRQNPTTKQPARRGKAAQQPTLVQFVQSMRGEIARALPSHVASPERIARIALTELRRVDHLAECTQESFGGALMTCAALGLEPGGVGGEAYLLPFWNKKVRAYEVTLVIGYQGMVRLFWQHPAAAGLAAHTVHEGDEFDFEYGLEPFLRHKPARTGRGKPTDYYAVAKMANGGSAFVVMNVEDIEAIRHRSKARDAGPWSTDYGLRRHGAQDLHSAVVQVAAEVC	−0.807	−0.626	−1.057	−0.929	−0.932
SSAP_134: SEQ ID NO: 303; Andreesenia angusta (protein, listed as Andreesenia angusta) SNLKNQLANKAGGTATKKQPQTMQDWIKVMEPQIKKALPSVITAERFTRMALTAISTNPKLAECTPESFMGALMNAAQLGLEPNTPLGQAYLIPYGKSVQFQVGYKGLMELAQRSGQFKSIYAHTVYENDEFEVEYGLTQNIVHKPNFDDRGKPIGFYAVYKLTNGGENFVFMTQREVEEFGKAKSKTFNNGPWKTDFEAMAKKTVLKQLLKYAPIKVEFQREIAQDATIKTEIAEDMTEVPEEMVEAEYEVVEQNTMAEDADLKGTPFETK	−1.053	−0.424	−1.284	−1.104	−1.168
SSAP_252: SEQ ID NO: 421; Bacteroides pyogenes DSM 20611 = JCM 6294 (protein, Bacteroides pyogenes) QVADPQSVLNSAVIAATLDLPINPNLGFAAIVPYNDRKSGKCIAQFQLMYKGLVELCLRSGQFASLIDEVVYEGQIVKKNKFTGEYIFDEDAKTSNKVIGYMAYFRLVNGFEKTFYMTSEEVTAHAKAYSQSFKSGYGVWKDNFDIMARKTVLKLLLSKYAPKSIEMQRAITFDQAAVKGDLTETNVDEAEIEYIDNESGSDKIKQAAEDAVIQSQQKTLL	−0.876	−0.635	−0.275	−0.560	−0.575
SSAP_138: SEQ ID NO: 307; unclassified Coprococcus (protein, listed as Coprococcus sp.) ANNIDLKQELAEQASKVPAKKDEEVKLTKSMTIPDMVKAMMPEIKKALPAVMTPERFTRIALSALNTTPALNQCTPMSFLAALMNAAQLGLEPNTPLGQAYLIPYKNHGTLECQFQIGYKGLIELAYRSGQMQTIQAQTVYENDEFAYQYGLEPVLVHRPAYSDRGEVKYFYGIFKTVNGGYGMAVMSRAEMDLYAKTYSKAYDSSYSPWKSNYEDMAKKTVIKQALKYAPIKTDFQRALSFDETIKKEISLDMSTVKNELLDVA	−1.000	−0.320	−1.429	−0.887	−1.214
